Measurements from paper PMC6402485 (Biochemistry, 2013).
Like-named read-outs stand apart in the source and are kept apart here.

Columns and labels:
[1] = molecular target: the molecule itself; experiment: native MS
[2] = molecular target: the molecule itself; experiment: native MS; remark: listed apart in the source

B1: Wild type SgrAI ENase (enzyme, Streptomyces griseus)
chain: PFTYSIEATRNLATTERCIQDIRNAPVRNRSTQFQLAQQNMLAYTFGEVIPGFASAGINGMNYRDVIGRPVENAVTEGTHFFRDDFRVDSNAKAKVAGDIFEIVSSAVMWNCAARWNSLMVGEGWRSQPRYSRPTLSPSPRRQVAVLNLPRSFDWVSLLVPESQEVIEEFRAGLRKDGLGLPTSTPDLAVVVLPEEFQNDEMWREEIAGLTRPNQILLSGAYQRLQGRVQPGEISLAVAFKRSLRSDRLYQPLYEANVMQLLLEGKLGAPKVEFEVHTLAPEGTNAFVTYEAASLYGLAEGRSAVHRAIRELYVPPTAADLARRFFAFLNERMELVNG
[1]
  stoichiometry N: 38
[2]
  stoichiometry N: 2
